Results from paper PMC2995781.

Legend:
[1] = biological target: surfactant protein A (SP-A) in human broncho-alveolar lavage fluid (human (endogenous in BAL fluid)) (UniProt Q8IWL2); experiment: latex bead agglutination (light microscopy); whole serum or BAL sample; streptavidin latex beads with biotinylated rabbit anti-goat antibody and goat anti-human SP-A antibody (N19); Hank solution, 6.5 mM Ca2+, 3 h at 4°C on a microscope slide; size of the biggest agglutinate in pixel
[2] = biological target: surfactant protein A (SP-A) in human serum (human (endogenous in serum)) (UniProt Q8IWL2); experiment: as above

Row | size of the agglutinates [1] | size of the agglutinates [2] | Substance
1 | 1060 pixel |  | surfactant protein A (SP-A) in human broncho-alveolar lavage fluid (from UniProt Q8IWL2 21-248) (natural protein)
2 |  | 1360 pixel | surfactant protein A (SP-A) in human serum (from UniProt Q8IWL2 21-248) (natural protein)
